Results reported in US20220177594A1 (ZOETIS SERVICES, published 2022).
Read-outs that look alike come from different tables or passages of the source.

Assays:
Human_OSMR [1] = target: T1, Human_OSMR (human, UniProt Q99650 28-739); assay: SPR Biacore
T1 construct: Bought protein; also called hOSMR
T1 sequence: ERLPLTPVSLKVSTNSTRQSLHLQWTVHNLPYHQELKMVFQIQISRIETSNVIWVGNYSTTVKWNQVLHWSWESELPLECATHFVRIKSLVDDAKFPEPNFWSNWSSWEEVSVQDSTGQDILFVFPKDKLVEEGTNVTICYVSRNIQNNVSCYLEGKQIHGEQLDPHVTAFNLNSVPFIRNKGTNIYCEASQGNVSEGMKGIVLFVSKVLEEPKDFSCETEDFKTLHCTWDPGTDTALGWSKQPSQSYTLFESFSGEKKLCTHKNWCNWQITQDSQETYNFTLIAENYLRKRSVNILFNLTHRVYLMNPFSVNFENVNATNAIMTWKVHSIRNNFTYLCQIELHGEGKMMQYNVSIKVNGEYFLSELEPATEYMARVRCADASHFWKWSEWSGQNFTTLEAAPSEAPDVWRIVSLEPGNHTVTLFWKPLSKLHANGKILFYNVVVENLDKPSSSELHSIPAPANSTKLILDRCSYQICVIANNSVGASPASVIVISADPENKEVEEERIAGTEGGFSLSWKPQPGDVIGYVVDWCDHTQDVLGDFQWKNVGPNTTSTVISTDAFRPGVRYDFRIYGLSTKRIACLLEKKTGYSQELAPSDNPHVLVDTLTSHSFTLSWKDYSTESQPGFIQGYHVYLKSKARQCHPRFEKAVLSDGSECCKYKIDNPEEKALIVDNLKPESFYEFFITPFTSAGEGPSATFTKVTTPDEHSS
Description: (§1) The affinity with which candidate mAbs bind canine, feline, and human (SEQ ID NO: 122; Human_OSMR) (R&D Systems, Minneapolis, Minn.) OSMR was determined using surface plasmon resonance (SPR) on a Biacore system (Biacore Life Sciences (GE Healthcare), Uppsala, Sweden). To avoid affinity differences associated with differential surface preparation that can occur when immobilizing antibodies to surfaces; OSMR from each species was directly conjugated to individual surfaces. Immobilization was obtained by amine coupling 5 μg/mL OSMR using N-hydroxysuccinimide (NHS)/1-Ethyl-3-(3-dimethylaminopropyl) carbodiimide (EDC) chemistry. Chips were quenched with ethanolamine and the affinity with which all candidate mAbs bound to the immobilized OSMR was evaluated. All curves were fit to a 1:1 model. […] Results for affinity measurements are described herein.
Caninized (canine) and felinized (feline) anti-OSMR antibodies were cloned, expressed, and purified. The sequence of each speciated antibody in Table 6 is described in Example 8. Affinity of these speciated antibodies to canine and feline OSMR was measured using Biacore. Table 5 describes results of these Biacore experiments for speciated antibodies that expressed and bound canine and/or feline OSMR. As indicated in the table, this first round of speciation produced antibodies from the 19F07, 09E09, and 10F07 lineage that expressed and bound to their protein target. For comparison to the mouse and mouse:canine chimeras having the same CDRs as these speciated versions, see Tables 1 and 3 respectively. […] Detailed here are the binding kinetics for antibodies that exemplify this goal.

[2] = target: T2, canine OSMR on canine cells (canine, UniProt A0A8I3MI11 28-967); assay: cell-based or functional assay
T2 sequence: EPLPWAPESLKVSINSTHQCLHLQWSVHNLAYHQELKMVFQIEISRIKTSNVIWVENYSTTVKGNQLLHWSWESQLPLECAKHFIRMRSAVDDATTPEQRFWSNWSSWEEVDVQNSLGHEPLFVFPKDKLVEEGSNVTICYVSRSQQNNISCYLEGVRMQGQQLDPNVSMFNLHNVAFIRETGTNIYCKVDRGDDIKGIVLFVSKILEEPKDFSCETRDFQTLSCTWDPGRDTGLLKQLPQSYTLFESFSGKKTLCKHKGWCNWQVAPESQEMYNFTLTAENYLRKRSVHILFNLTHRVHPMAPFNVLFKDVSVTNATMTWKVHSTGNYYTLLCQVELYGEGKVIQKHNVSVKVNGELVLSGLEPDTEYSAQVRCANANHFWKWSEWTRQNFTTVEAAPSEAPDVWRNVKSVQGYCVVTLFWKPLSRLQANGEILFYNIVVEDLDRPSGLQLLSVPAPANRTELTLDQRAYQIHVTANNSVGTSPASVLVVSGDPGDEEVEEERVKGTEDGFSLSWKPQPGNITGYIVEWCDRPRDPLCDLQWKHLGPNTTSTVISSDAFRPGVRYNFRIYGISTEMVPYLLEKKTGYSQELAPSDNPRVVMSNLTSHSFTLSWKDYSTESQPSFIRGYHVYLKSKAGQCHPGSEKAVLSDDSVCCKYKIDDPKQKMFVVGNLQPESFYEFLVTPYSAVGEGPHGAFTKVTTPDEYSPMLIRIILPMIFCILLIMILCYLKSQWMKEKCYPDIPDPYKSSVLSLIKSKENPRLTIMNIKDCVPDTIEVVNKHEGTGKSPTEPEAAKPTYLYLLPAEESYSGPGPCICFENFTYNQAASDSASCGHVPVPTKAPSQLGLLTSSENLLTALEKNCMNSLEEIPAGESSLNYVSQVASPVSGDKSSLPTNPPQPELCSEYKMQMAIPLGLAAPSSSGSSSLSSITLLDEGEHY

[3] = target: T3, ANTIBODY EXPRESSION CONTROL; assay: SPR Biacore, expression control
T3 construct: also called mouse anti-canine antibody (capture reagent of the expression control ELISA)
Method in brief: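 Surface plasmon resonance with OSMR amine-coupled at 5 μg/mL via NHS/EDC, ethanolamine-quenched, and candidate mAbs flowed over as analyte. ka, kd and KD derived from 1:1 model fits.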

[4] = target: T2, canine OSMR on canine cells; assay: cell-based or functional assay; remark: listed apart in the source
Human_OSMR [5] = target: T1, Human_OSMR; assay: SPR Biacore, OSMR on chip
Description: as §1

[6] = target: T4, feline OSMR on feline Fcwf-4 cells (feline, UniProt A0ABI8A843 28-960); assay: cell-based or functional assay
T4 sequence: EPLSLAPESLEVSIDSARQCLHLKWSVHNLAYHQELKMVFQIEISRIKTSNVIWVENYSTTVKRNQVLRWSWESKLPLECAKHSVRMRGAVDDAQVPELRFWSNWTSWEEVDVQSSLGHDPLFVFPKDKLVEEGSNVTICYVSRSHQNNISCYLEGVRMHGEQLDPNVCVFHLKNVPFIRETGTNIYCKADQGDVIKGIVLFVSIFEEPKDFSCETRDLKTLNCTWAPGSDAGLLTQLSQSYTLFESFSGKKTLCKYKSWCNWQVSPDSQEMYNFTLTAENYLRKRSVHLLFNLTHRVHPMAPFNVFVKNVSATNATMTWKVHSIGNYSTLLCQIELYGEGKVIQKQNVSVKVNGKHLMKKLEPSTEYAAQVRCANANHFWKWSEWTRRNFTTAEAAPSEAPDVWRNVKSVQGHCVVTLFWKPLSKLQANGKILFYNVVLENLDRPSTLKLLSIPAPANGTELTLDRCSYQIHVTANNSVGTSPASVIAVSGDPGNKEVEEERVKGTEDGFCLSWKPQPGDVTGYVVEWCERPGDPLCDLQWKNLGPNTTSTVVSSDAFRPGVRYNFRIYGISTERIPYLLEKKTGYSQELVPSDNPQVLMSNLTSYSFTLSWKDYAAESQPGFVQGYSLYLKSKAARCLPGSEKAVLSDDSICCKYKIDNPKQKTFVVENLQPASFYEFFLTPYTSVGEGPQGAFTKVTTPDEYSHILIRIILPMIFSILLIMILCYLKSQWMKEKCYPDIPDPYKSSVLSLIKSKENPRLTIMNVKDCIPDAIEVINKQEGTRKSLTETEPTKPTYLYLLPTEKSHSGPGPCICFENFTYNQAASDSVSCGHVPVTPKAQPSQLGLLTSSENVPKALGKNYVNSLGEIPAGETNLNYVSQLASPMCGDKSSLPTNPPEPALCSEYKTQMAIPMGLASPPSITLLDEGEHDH

[7] = target: T4, feline OSMR on feline Fcwf-4 cells; assay: cell-based or functional assay; remark: listed apart in the source

Binder	Kd (Human_OSMR [1])	koff (Human_OSMR [1])	kon (Human_OSMR [1])	IC50, inhibition of canine IL-31 pSTAT3 signaling, canine DH82 cells [2]	Kd [3]	koff [3]	kon [3]	IC50, inhibition of canine IL-31 pSTAT3 signaling, canine DH82 cells [4]	binding result (Human_OSMR [5])	IC50, inhibition of canine OSM pSTAT3 signaling, canine DH82 cells [2]	IC50, inhibition of feline IL-31 pSTAT3 signaling, feline Fcwf-4 cells [6]	IC50, inhibition of canine OSM pSTAT3 signaling, canine DH82 cells [4]	IC50, inhibition of canine OSM pSTAT3 signaling, feline Fcwf-4 cells [7]	IC50, inhibition of feline IL-31 pSTAT3 signaling, feline Fcwf-4 cells [7]
Canine_OSM (ligand, also called cOSM) SCSDKYPELLGQLQKQADFMQHTNTLLDLYIRSQGLDKNGLKEHCRERPGAFPSKDALQRLSRRVFLRTLDTTLGQVLLRLAALEQDIPKAQDLEMLSGVKLNIRGFKNNIHCMAQLLPGSSETTEPTPTSPGASPSPTPTLDTFQRRLEGCRFLHGYHRFMRSVGQVFREWGKSLSRSRR	38.1 nM	0.0039 s⁻¹	102000 M⁻¹ s⁻¹											
mouse: canine 09E09 chimera (antibody, V domains shown, Mouse variable domains on canine IgG constant regions; also called 09E09 (Mouse:Canine); mouse:dog chimera 09E09) VH: DVKLVESGEGLVKPGGSLKLSCAASGFTFSSYAMSWVRQTPEKRLEWVAYISSGGDYIYYADTVKGRFTISRDNARNTLYLQMSSLKSEDTAMYYCTRDPITGTFAYWGQGTLVTVSA VL: DLQMTQTTSSLSASLGDRVTISCRASQDINNYLNWYQQKPDGTVKLLIYYTSTLHSGVPSRFSGSGSGTDYSLTISNLEQEDIATYFCQQGNTLPWTFGGGTKLEIKR				31.3 µg/ml	0.0023 nM	8.68e-07 s⁻¹	374000 M⁻¹ s⁻¹	47.5 µg/ml	no binding					
mouse: canine 10F07 chimera (antibody, V domains shown, Mouse variable domains on canine IgG constant regions; also called 10F07 (Mouse:Canine); mouse:dog chimera 10F07) VH: DVKLVESGEGLVKPGGSLKLSCAASGFTFSSYAMSWVRQTPEKRLEWVTYISSGGDYFYYADTVKGRFTISRDNARNTLYLQMSSLKSEDTAMYYCTRDPITGTFAYWGQGTLVTVSA VL: DIQMTQTTSSLSASLGDRVTISCRASQDITNYLNWYQQKPDGTVKLLIYYTSTLHSGVPSRFSGSGSGTDFSLTISNLEQEDIATYFCQQGHMLPWTFGGGTKLEIKR				0.05 µg/ml	0.617 nM	8.27e-05 s⁻¹	134000 M⁻¹ s⁻¹	0.03 µg/ml	no binding	0.16 µg/ml	0.32 µg/ml	0.2 µg/ml	0.28 µg/ml	0.05 µg/ml
mouse: canine 02D09 chimera (antibody, V domains shown, Mouse variable domains on canine IgG constant regions; also called 02D09 (Mouse:Canine); chimeric 02D09) VH: EVQLVESGGGLVKPGGSLTLSCAASGFTFSDYGMHWLRQAPEKGLEWVAYISSGSRAVFFADTVKGRFTISRDNAKNTLFLQMTSLRSDDTAMYYCARDRYDGRGFAYWGQGTLVTVSA VL: DIVLTQSPATLSVTPGDSVSLSCRASQSISNNLHWYQQTSHESPRLLITYASQSISGIPSRFSGSGSGTDFTLSINSVETEDFGMYFCQQSNSWPLTFGAGTKLELKR				97.7 µg/ml	0.6 nM	9.15e-05 s⁻¹	153000 M⁻¹ s⁻¹	97.7 µg/ml	no binding					
